# B1: modified nuclease L2 (other)
# chain: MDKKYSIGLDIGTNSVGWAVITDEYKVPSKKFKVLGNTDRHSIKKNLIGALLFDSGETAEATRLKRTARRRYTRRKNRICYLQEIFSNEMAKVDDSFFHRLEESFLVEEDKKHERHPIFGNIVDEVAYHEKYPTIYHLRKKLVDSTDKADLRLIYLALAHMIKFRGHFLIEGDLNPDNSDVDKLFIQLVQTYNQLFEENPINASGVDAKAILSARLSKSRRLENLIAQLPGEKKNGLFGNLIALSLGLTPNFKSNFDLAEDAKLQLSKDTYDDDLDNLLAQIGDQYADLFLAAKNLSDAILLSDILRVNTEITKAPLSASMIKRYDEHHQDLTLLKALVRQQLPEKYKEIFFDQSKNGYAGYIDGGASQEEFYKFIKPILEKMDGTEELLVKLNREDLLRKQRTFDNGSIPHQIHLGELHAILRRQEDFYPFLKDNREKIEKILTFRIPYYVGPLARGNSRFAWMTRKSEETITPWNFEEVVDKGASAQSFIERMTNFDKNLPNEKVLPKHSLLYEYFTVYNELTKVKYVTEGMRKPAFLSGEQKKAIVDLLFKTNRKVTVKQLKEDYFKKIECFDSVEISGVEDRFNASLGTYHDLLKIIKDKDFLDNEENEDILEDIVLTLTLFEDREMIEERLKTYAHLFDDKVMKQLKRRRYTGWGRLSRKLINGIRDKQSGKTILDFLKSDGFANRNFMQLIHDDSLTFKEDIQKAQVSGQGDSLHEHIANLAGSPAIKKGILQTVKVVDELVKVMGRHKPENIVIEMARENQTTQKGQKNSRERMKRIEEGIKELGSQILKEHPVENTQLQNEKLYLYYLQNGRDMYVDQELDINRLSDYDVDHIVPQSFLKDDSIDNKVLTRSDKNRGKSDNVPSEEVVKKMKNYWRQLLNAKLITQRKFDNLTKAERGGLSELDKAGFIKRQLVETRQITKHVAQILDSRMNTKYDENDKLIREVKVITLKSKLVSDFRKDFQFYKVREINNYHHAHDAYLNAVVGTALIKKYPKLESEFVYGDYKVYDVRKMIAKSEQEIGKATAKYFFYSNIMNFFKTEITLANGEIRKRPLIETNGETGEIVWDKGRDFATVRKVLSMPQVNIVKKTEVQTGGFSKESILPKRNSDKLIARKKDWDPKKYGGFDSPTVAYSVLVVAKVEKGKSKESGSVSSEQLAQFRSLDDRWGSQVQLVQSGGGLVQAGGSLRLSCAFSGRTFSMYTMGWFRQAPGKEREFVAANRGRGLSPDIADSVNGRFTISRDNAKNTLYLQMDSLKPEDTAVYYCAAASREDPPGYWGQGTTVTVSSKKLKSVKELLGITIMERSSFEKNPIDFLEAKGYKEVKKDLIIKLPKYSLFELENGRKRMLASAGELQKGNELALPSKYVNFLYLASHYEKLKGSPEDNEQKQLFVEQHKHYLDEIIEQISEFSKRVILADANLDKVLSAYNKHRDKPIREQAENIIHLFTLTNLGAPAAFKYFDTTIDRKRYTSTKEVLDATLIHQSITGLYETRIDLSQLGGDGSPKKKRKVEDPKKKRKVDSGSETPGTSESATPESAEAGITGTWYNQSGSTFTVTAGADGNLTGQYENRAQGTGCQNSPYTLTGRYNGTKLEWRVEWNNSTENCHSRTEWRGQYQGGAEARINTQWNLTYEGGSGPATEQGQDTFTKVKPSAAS
# B2: modified nuclease L1 (other)
# chain: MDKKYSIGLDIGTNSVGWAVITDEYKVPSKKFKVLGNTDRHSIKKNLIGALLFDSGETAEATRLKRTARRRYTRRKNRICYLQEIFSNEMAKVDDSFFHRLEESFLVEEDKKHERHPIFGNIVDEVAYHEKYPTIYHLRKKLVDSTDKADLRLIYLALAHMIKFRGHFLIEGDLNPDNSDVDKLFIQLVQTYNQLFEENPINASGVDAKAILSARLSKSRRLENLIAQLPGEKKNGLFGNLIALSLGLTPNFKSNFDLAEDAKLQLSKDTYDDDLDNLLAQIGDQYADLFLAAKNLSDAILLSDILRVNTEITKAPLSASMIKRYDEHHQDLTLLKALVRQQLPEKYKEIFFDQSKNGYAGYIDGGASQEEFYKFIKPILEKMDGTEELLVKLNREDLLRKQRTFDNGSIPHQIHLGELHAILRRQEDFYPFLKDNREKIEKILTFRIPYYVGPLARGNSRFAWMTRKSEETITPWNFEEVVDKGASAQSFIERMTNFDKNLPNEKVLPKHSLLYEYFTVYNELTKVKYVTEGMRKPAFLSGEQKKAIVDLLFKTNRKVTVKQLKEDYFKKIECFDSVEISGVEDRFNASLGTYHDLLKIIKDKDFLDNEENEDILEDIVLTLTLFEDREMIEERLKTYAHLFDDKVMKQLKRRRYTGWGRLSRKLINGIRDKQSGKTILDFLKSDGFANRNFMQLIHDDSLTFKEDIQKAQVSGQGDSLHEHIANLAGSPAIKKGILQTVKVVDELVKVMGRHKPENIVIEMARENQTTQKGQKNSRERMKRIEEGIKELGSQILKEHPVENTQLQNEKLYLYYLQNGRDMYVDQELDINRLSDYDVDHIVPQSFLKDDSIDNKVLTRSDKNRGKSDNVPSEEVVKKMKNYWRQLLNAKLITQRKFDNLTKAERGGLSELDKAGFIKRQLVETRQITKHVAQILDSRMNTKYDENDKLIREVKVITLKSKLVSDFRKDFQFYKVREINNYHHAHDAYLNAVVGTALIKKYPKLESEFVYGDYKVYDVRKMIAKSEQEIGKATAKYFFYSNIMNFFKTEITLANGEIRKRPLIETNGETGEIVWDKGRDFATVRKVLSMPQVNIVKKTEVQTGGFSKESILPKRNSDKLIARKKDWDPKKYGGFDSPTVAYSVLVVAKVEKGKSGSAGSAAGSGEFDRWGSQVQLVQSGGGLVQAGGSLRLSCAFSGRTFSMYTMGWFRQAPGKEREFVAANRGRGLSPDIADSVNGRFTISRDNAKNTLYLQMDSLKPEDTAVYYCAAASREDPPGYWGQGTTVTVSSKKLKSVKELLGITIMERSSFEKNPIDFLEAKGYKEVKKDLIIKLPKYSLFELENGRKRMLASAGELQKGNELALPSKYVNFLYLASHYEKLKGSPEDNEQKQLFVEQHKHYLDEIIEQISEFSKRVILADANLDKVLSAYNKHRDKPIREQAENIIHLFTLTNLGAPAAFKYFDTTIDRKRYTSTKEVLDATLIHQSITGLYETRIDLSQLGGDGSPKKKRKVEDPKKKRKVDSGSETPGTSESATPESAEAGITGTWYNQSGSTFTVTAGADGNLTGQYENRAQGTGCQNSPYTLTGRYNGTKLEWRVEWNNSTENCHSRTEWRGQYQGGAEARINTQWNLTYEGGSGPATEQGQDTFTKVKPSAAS
# B3: modified nuclease Zero (other)
# chain: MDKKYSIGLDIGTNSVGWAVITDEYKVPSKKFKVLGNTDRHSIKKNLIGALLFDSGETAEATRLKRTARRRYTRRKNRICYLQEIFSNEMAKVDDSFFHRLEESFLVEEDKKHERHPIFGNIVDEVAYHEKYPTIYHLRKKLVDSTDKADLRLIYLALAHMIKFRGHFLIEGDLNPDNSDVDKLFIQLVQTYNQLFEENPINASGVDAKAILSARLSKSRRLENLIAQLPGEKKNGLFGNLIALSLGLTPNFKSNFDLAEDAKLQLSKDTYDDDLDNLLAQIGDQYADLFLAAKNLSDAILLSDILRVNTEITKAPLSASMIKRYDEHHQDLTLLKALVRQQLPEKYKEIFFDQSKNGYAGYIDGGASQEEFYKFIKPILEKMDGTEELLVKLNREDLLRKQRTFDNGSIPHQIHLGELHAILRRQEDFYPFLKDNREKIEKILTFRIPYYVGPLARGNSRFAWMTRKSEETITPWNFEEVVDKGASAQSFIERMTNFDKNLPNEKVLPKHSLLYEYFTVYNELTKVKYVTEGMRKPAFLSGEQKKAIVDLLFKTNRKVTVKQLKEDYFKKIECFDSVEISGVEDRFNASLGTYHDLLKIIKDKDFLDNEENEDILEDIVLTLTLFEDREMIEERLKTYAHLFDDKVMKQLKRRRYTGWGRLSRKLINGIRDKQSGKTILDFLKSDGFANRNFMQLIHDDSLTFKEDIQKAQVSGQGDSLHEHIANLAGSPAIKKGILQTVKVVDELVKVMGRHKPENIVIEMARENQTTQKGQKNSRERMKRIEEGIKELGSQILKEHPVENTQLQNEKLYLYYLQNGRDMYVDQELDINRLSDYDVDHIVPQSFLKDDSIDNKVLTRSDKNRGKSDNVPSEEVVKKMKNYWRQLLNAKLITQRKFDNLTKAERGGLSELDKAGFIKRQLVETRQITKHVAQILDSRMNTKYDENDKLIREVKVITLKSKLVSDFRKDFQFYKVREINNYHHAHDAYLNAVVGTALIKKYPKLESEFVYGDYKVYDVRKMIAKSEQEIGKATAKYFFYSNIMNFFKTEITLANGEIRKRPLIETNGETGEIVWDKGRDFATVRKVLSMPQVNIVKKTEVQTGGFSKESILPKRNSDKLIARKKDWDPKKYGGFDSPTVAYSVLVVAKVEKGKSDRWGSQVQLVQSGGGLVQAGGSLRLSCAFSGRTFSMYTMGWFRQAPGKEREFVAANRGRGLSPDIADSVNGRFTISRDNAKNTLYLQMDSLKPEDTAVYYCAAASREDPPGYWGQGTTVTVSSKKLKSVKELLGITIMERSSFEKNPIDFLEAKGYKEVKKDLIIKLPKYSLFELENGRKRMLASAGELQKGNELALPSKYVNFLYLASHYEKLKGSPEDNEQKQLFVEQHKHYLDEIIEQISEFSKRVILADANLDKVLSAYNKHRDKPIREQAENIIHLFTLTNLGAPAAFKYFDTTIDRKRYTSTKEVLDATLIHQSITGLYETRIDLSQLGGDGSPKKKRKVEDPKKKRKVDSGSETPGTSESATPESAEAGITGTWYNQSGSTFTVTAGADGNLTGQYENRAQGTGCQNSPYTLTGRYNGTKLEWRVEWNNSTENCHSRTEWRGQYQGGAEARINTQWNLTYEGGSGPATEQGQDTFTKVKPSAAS
# Target: T1, CD4 on CD4+ T cells (Jurkat CD4+ T cells; human primary CD4+ T cells) (human, UniProt P01730 26-458)
# T1 construct: whole, on cells; also called CD4 receptor
# Assay: flow cytometry, TAMRA-labelled nuclease, 1 h on Jurkat CD4+ T cells
row,Binder,delivery (percent of cells TAMRA-positive) [%]
1,B1,> 99
2,B2,> 99
3,B3,> 99

# Source: patent publication US20260071199A1 (JENTHERA THERAPEUTICS, published 2026)
